Values of other authors in PMC5750235.
pKd: −log10 of the molar value.

Molecular target: IgE (Homo sapiens) (UniProt P01854)
Sequence (P01854 whole entry): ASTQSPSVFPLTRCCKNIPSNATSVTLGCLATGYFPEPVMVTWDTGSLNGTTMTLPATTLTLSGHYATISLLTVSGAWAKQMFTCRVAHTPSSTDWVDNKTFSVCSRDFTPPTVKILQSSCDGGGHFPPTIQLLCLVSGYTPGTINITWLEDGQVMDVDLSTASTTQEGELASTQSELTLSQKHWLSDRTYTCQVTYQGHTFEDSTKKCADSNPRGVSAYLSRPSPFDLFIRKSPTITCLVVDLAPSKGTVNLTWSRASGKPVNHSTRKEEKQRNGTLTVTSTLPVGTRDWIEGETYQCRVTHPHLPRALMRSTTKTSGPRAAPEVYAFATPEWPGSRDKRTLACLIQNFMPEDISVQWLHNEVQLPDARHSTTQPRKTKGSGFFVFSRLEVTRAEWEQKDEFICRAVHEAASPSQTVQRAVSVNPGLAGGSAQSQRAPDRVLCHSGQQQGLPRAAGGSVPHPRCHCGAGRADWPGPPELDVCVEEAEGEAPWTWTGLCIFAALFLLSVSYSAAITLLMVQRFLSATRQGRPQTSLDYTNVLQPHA

Sequence of CD23 (P06734 48-321): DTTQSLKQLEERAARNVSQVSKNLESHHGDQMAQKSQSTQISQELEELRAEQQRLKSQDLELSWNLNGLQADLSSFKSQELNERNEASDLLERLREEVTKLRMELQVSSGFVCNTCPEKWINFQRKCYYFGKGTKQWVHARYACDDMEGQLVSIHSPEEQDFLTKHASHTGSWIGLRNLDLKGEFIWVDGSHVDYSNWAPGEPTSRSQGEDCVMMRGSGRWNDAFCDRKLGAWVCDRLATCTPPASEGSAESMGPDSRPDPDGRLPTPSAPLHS

pKd: 5.70
Substance: CD23 (from UniProt P06734)
